Measurements reported in article PMC6853982.

Biological target: GFP-AtEH1/Pan1 (Arabidopsis) (UniProt Q9LM78)
Experiment: FRET or BRET; FRET-FLIM in N. benthamiana leaf cells transiently co-expressing the GFP donor and RFP acceptor fusions; GFP-AtEH1/Pan1 alone as donor control; whole field images

UniProt Q9LM78, sequence (Q9LM78 entry or part of it): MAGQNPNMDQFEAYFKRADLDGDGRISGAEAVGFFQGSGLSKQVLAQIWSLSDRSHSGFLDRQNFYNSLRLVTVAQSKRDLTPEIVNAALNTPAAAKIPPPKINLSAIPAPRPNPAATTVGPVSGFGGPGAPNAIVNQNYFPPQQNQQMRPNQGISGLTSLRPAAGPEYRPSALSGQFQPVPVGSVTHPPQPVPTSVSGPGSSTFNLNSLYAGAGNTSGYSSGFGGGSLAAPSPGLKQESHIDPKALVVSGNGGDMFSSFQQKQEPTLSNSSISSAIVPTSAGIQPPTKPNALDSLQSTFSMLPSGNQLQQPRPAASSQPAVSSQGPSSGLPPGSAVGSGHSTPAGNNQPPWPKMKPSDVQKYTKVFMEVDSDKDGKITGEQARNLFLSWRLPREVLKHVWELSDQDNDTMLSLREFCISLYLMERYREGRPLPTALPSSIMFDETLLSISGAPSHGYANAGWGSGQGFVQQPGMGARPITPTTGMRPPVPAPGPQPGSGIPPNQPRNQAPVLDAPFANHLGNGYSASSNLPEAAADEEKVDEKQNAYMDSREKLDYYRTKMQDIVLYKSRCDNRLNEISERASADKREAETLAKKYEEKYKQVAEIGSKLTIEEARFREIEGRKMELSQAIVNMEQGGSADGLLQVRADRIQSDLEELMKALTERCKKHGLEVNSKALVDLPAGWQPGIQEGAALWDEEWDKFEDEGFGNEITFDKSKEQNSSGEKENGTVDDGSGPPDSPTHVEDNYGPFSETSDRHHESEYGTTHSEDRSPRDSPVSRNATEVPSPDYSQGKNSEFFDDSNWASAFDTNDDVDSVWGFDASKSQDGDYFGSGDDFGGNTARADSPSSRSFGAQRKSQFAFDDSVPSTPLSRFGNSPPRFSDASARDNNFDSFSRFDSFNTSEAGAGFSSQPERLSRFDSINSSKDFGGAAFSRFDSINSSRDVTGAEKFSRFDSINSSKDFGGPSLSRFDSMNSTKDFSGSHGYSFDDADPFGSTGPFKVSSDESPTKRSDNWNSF

For RFP-AtEH2/Pan1 (natural protein), which fluorescence life-time of the GFP donor in the presence of the RFP acceptor is on record?
Its fluorescence life-time of the GFP donor in the presence of the RFP acceptor is 2.45 ns.
